Measured values: patent US20180258181A1 (Bayer, published 2018)
Numbering of substitutions follows the chain as printed.

B1: MF-J Fab (Fab, V domains shown)
VH: QVELVQSGAEVKKPGESLKISCKGSGYSFTNYWIGWVRQMPGKGLEWMGVIMPSDSYTRYSPSFQGQVTISADKSISTAYLQWSSLKASDTAMYYCARYGHGMYGGALDVWGQGTLVTVSS
VL: DIVLTQSPATLSLSPGERATLSCRASQSVRSSRLAWYQQKPGQAPRLLIYGASKRATGVPARFSGSGSGTDFTLTISSLEPEDFATYYCQQYYDFPPTFGQGTKVEIKR
notes: Purified Fab
B2: MOR06640 IgG (antibody, V domains shown)
VH: B1 VH with E3Q
VL: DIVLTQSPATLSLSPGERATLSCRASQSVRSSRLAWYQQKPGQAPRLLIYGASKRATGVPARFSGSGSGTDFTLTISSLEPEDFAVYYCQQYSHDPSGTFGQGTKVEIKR
B3: MOR07111 IgG (antibody, V domains shown)
VH: B1 VH with E3Q
VL: B1 VL with T86V, Y92F, D94S, F95K, P97I
B4: MF-J IgG (antibody, V domains shown)
VH: B1 VH
VL: B1 VL
B5: MOR06642 IgG (antibody, V domains shown)
VH: B1 VH with E3Q
VL: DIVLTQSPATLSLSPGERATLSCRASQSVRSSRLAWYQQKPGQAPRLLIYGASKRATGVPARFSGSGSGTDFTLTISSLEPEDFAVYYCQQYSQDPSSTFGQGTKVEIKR
B6: MOR07265 IgG (antibody, V domains shown)
VH: B1 VH with E3Q, V50F, M52W, S54V, Y57W, R59Q
VL: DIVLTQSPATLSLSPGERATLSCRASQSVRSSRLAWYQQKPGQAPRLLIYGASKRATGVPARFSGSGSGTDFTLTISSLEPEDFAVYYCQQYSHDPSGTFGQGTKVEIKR
B7: MOR06669 IgG (antibody, V domains shown)
VH: B1 VH with E3Q, V50I, M52W, S54I, Y57F, R59Q
VL: B1 VL
B8: MOR06631 Fab (Fab, V domains shown)
VH: B1 VH with E3Q, V50F, M52W, S54V, Y57W, R59Q
VL: B1 VL
notes: Purified Fab
B9: MOR06669 Fab (Fab, V domains shown)
VH: B1 VH with E3Q, V50I, M52W, S54I, Y57F, R59Q
VL: B1 VL
notes: Purified Fab
B10: MOR06631 IgG (antibody, V domains shown)
VH: B1 VH with E3Q, V50F, M52W, S54V, Y57W, R59Q
VL: B1 VL
B11: MF-A Fab (Fab, V domains shown)
VH: QVQLVQSGAEVKKPGSSVKVSCKASGGTFSSYYFSWVRQAPGQGLEWMGGIIPKFGSANYAQKFQGRVTITADESTSTAYMELSSLRSEDTAVYYCARRTSMDYWGQGTLVTVSS
VL: DIALTQPASVSGSPGQSITISCTGTSSDVGGYNYVSWYQQHPGKAPKLMIYSVSKRPSGVSNRFSGSKSGNTASLTISGLQAEDEADYYCGAWAHMSLGKVFGGGTKLTVLG
notes: Purified Fab
B12: MF-A IgG (antibody, V domains shown)
VH: B11 VH
VL: B11 VL
B13: MOR06657 IgG (antibody, V domains shown)
VH: B11 VH
VL: B11 VL with G91A, A92T, A94D, M96S, S97Q, L98M
B14: MOR06657 Fab (Fab, V domains shown)
VH: B11 VH
VL: B11 VL with G91A, A92T, A94D, M96S, S97Q, L98M
notes: Purified Fab
B15: MOR06643 Fab (Fab, V domains shown)
VH: QVQLVESGGGLVQPGGSLRLSCAASGFTFSDYAMSWVRQAPGKGLEWVSAIMYDSSSTFYADSVKGRFTISRDNSKNTLYLQMNSLRAEDTAVYYCARINYIYKGVHFDYWGQGTLVTVSS
VL: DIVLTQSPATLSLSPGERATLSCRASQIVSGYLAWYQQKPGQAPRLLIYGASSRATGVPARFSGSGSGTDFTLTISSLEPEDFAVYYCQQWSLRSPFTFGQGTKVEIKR
notes: Purified Fab
B16: MOR06643 IgG (antibody, V domains shown)
VH: B15 VH
VL: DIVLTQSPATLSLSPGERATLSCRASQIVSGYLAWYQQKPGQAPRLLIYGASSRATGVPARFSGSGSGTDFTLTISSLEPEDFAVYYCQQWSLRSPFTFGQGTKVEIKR
B17: MF-226 Fab (Fab, V domains shown)
VH: QVELVQSGAEVKKPGASVKVSCKASGYTFTGNYINWVRQAPGQGLEWMGIINPHGGDTKYAQKFQGRVTMTRDTSISTAYMELSSLRSEDTAVYYCARWHHGTWIFDYWGQGTLVTVSS
VL: DIVLTQPPSVSGAPGQRVTISCSGSSSNIGSNYVSWYQQLPGTAPKLLIYNDNQRPSGVPDRFSGSKSGTSASLAITGLQSEDEADYYCSTYDRRTFSVFGGGTKLTVLG
notes: Purified Fab
B18: MOR06626 IgG (antibody, V domains shown)
VH: B17 VH with E3Q, H54T, G55K, D57W, K59L
VL: B17 VL
B19: MOR06638 IgG (antibody, V domains shown)
VH: B17 VH with E3Q
VL: DIVLTQPPSVSGAPGQRVTISCSGSSSNIGSNYVSWYQQLPGTAPKLLIYNDNQRPSGVPDRFSGSKSGTSASLAITGLQSEDEADYYCSSWDRADGSYVFGGGTKLTVLG
B20: MOR06638 Fab (Fab, V domains shown)
VH: B17 VH with E3Q
VL: B19 VL
notes: Purified Fab
B21: MOR06626 Fab (Fab, V domains shown)
VH: B17 VH with E3Q, H54T, G55K, D57W, K59L
VL: B17 VL
notes: Purified Fab

How the values were obtained:
[1] = biological target: T1, human mesothelin (recombinant, soluble, purified; 40 kDa C-terminal polypeptide of the mesothelin precursor) (human, UniProt Q13421 296-598, limits assumed); experiment: SPR (Biacore), Fab on directly immobilized mesothelin
T1 construct: also called soluble mesothelin
T1 sequence (Q13421 other isoform, or with tags, fused parts or gaps limits assumed): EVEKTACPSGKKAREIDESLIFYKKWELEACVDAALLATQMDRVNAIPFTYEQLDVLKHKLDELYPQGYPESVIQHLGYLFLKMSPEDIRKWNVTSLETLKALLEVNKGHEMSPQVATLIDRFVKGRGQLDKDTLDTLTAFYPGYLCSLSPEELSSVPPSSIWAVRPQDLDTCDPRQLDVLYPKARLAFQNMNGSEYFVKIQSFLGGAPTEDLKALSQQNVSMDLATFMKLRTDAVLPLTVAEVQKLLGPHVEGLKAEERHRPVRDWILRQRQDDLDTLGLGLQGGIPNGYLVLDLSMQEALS

[2] = biological target: T2, mesothelin on NCI-H226 cells (UniProt Q13421 296-598); experiment: FACS titration, IgG on NCI-H226 cells
T2 construct: whole, on cells; In the immunoblots the protein stood in a denatured cell extract
Method: FACS titration was performed in a 96 well microtiter plate, in which serial dilutions of the primary antibody in a volume of 80 μl of FACS buffer (3% FCS, 0.02% NaN₃ in PBS) were mixed with 20 μl of a cell suspension consisting of 10⁶ cells/ml which had been detached with accutase or trypsin/EDTA, and resuspended in FACS buffer. Incubation was performed at 4° C. for 1 hour with agitation. Cells were washed twice with FACS buffer and resuspended in 100 μl/well of anti-human PE conjugate solution in FACS buffer. Incubation and washing was performed as before. Analysis of cell-bound antibodies was done using the FACS Array device. EC₅₀ values were determined from fluorescence medians of duplicates using Prism 4.0 software (GraphPad) applying non-linear regression fit.

[3] = biological target: T3, mesothelin on CHO-A9 cells (CHO-K1 stably transfected with the GPI-anchored C-terminal part of mesothelin) (Homo sapiens (Human), UniProt Q13421 287-598, GPI anchor); experiment: live cell ELISA, IgG1 on CHO-A9 cells
T3 construct: In the immunoblots the protein stood in a denatured cell extract; also called mesothelin-expressing CHO-A9 cells
T3 sequence (Q13421 other isoform, or with tags, fused parts or gaps limits assumed): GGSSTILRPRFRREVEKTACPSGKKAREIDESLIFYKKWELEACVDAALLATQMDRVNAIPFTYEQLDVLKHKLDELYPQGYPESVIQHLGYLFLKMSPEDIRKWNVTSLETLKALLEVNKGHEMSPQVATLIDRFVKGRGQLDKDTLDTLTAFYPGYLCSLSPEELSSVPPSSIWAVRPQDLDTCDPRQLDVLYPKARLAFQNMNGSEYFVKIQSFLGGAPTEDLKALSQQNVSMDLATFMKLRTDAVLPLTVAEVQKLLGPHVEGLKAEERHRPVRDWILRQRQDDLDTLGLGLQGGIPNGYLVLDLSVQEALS

[4] = biological target: T3, mesothelin on CHO-A9 cells (CHO-K1 …); experiment: FACS with Scatchard analysis, IgG1 on CHO-A9 cells
[5] = biological target: T1, human mesothelin (recombinant, soluble, …); experiment: SPR (Biacore 3000), Fab on covalently immobilized human mesothelin
[6] = biological target: T4, murine mesothelin (recombinant) (murine, UniProt Q61468 298-600, limits assumed); experiment: SPR (Biacore 3000), Fab on covalently immobilized murine mesothelin
T4 construct: Covalently immobilized on the Biacore chip
T4 sequence (looked up): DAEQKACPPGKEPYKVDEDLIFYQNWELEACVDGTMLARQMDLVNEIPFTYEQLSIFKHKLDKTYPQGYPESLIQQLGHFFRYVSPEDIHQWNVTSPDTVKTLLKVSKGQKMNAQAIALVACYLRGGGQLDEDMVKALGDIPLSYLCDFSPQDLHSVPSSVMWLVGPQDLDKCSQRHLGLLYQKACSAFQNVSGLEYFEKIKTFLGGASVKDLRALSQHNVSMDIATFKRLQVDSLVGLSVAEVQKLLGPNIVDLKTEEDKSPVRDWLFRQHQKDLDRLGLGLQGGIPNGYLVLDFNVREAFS
Method: Shown in Table 5 are results of Biacore and ELISA studies showing cross-reactivity of antibodies of the invention to murine mesothelin. The kinetic constants kₒₙ and koff were determined with serial dilutions of the respective purified Fab fragment binding to covalently immobilized human or murine mesothelin using the Biacore 3000 instrument (Biacore, Uppsala, Sweden). Covalent antigen immobilization was achieved by a standard EDC-NHS coupling procedure. Kinetic measurements were done in PBS, pH 7.2 at a flow rate of […] using Fab concentration ranging from 1.5-500 nM. Injection time for each concentration was 1 min, followed by 3 min dissociation phase. For regeneration 5 μl 10 mM glycine buffer, pH 1.8 was used. All sensograms were fitted using the BIA evaluation software 3.1 (Biacore).

Binder	Kd [1]	koff [1]	EC50 [2]	further results
B1	9.2 nM	0.0029 s⁻¹	–	–
B2	–	–	0.63 nM	–
B3	–	–	0.8 nM	–
B4	–	–	–	EC50 [3]: 3.9 nM; EC50 [4]: 0.11 nM
B5	–	–	0.58 nM	–
B6	–	–	1.11 nM	–
B7	–	–	0.41 nM	–
B8	0.09 nM	1.4e-05 s⁻¹	–	–
B9	0.24 nM	8.1e-05 s⁻¹	–	–
B10	–	–	2.02 nM	–
B11	19 nM	0.079 s⁻¹	–	Kd [5]: 19 nM; koff [5]: 0.079 s⁻¹; Kd [6]: 670 nM; koff [6]: 0.27 s⁻¹
B12	–	–	–	EC50 [3]: 0.8 nM; EC50 [4]: 0.05 nM
B13	–	–	0.14 nM	–
B14	0.95 nM	0.0055 s⁻¹	–	Kd [5]: 0.95 nM; koff [5]: 0.0055 s⁻¹; Kd [6]: 360 nM; koff [6]: 0.16 s⁻¹
B15	0.36 nM	0.00028 s⁻¹	–	–
B16	–	–	0.23 nM	–
B17	58 nM	0.038 s⁻¹	–	Kd [5]: 58 nM; koff [5]: 0.038 s⁻¹; Kd [6]: 1280 nM; koff [6]: 0.14 s⁻¹
B18	–	–	0.44 nM	–
B19	–	–	0.19 nM	–
B20	16 nM	0.0063 s⁻¹	–	Kd [5]: 16 nM; koff [5]: 0.0063 s⁻¹; Kd [6]: 320 nM; koff [6]: 0.04 s⁻¹
B21	0.67 nM	0.0012 s⁻¹	–	Kd [5]: 0.67 nM; koff [5]: 0.0012 s⁻¹; Kd [6]: 6.7 nM; koff [6]: 0.0098 s⁻¹
